US20230128688A1 (published 2023)

Key:
CD20 [1] = molecular target: T1, CD20 (UniProt P11836 1-297, limits assumed); experiment: Octet bio-layer interferometry, Protein A biosensors, 1:1 global fit
T1 construct: Used in the Octet assay with Protein A biosensors
T1 sequence (looked up): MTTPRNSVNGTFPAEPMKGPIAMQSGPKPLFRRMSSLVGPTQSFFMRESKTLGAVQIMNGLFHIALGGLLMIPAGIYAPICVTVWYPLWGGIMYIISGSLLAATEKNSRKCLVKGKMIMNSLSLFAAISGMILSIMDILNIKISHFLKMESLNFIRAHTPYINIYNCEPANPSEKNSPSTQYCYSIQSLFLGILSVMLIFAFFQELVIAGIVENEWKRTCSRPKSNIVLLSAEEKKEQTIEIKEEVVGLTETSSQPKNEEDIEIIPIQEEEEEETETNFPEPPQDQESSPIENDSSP

CD20 [2] = molecular target: T1, CD20; experiment: Octet bio-layer interferometry, Protein A biosensors

B1: III-1 (CD20×CD3; rituximab×SP34 scFv) (bispecific antibody)
chain 1: QVQLQQPGAELVKPGASVKMSCKASGYTFTSYNMHWVKQTPGRGLEWIGAIYPGNGDTSYNQKFKGKATLTADKSSSTAYMQLSSLTSEDSAVYYCARSTYYGGDWYFNVWGAGTTVTVSA
chain 2: QIVLSQSPAILSASPGEKVTMTCRASSSVSYIHWFQQKPGSSPKPWIYATSNLASGVPVRFSGSGSGTSYSLTISRVEAEDAATYYCQQWTSNPPTFGGGTKLEIK
chain 3: EVQLVESGGGLVQPGGSLKLSCAASGFTFNTYAMNWVRQAPGKGLEWVGRIRSKYNNYATYYADSVKGRFTISRDDSKNTLYLQMNSLRAEDTAVYYCVRHGNFGNSYVSWFAYWGQGTLVTVSSGGGGSGGGGSGGGGSQAVVTQEPSLTVSPGGTVTLTCGSSTGAVTTSNYANWVQQKPGQAPRGLIGGTNKRAPGVPARFSGSLLGGKAALTLSGAQPEDEAEYYCALWYSNLWVFGGGTKLTVLGSEQKLISEEDLGSGGGGSLPET
modifications: C-terminal LPETG sortase tag joined through the (G)5-PEG linker from I-53 to a lysine of rituximab
For B1, which Kd (CD20 [1]) is on record?
Its Kd is 1.06 nM.

And the Kd (CD20 [2])?
The Kd was 0.75 nM.
